Test results: the supplement of paper PMC10065799, “High-throughput profiling of sequence recognition by tyrosine kinases and SH2 domains using bacterial peptide display” (eLife, 2023)

Key:
[1] = target: Grb2 SH2 (UniProt P62993); experiment: SH2 binding enrichment of the phosphorylated peptide, bacterial display (enrichment ratio); higher = better substrate or ligand; peptides without Tyr show the background
[2] = target: c-Src SH2; experiment: as above
[3] = target: SHP2-C SH2; experiment: as above
[4] = target: Fes (UniProt P07332); experiment: phosphorylation enrichment, bacterial display (enrichment ratio); higher = better substrate or ligand; peptides without Tyr show the background
Chain of Fes (P07332 whole entry, looked up): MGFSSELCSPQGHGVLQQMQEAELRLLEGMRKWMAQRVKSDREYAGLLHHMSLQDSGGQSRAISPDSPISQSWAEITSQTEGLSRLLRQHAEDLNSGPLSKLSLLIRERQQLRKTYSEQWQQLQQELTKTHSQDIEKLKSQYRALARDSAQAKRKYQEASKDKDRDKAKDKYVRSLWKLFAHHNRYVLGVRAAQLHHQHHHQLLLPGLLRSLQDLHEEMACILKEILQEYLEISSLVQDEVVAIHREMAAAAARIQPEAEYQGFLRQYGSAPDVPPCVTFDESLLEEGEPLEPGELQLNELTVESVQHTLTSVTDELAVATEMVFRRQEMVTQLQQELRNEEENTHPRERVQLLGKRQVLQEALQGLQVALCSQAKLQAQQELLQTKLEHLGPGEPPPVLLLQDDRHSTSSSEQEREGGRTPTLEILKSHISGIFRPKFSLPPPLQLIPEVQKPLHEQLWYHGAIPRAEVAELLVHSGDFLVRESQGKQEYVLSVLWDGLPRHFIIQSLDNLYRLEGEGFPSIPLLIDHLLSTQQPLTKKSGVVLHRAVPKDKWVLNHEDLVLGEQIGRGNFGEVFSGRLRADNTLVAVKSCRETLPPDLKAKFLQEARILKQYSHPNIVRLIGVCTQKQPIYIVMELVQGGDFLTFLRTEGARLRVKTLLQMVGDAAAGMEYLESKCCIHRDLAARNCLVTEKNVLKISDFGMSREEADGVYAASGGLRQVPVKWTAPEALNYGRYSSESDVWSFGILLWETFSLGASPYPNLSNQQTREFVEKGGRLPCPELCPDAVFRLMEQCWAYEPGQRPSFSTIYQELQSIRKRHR

[5] = target: EPHB2 (UniProt P29323); experiment: as above
Chain of EPHB2 (P29323 whole entry, looked up): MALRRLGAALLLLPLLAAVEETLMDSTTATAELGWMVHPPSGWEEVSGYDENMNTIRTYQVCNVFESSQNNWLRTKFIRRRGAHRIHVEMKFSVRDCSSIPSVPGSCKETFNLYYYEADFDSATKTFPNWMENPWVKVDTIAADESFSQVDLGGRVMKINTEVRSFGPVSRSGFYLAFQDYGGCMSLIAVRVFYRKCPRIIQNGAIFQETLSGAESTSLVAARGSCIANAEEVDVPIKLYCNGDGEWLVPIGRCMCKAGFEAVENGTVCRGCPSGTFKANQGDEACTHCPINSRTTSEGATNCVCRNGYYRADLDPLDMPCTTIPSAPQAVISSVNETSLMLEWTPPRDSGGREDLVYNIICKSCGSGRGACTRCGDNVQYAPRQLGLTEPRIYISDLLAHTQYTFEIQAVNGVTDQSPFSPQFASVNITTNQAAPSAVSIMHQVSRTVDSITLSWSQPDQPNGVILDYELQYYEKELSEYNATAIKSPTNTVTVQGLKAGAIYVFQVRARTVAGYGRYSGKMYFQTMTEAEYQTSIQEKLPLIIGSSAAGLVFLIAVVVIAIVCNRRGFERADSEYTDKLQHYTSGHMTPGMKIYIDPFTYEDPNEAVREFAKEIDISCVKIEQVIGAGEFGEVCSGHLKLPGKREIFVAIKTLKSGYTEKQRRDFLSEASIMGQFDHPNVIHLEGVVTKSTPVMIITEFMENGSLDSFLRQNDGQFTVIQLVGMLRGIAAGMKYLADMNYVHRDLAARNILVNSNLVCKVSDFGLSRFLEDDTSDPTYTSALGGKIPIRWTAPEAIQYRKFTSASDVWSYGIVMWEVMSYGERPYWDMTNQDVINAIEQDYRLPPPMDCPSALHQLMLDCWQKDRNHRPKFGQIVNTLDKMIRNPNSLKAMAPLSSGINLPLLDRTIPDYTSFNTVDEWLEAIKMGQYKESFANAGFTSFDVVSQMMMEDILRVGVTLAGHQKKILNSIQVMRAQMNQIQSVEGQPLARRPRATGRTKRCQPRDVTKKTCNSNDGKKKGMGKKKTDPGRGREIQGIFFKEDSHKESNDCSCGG

[6] = test system: c-Src; experiment: as above
[7] = target: MERTK (UniProt Q12866); experiment: as above
Chain of MERTK (Q12866 whole entry, looked up): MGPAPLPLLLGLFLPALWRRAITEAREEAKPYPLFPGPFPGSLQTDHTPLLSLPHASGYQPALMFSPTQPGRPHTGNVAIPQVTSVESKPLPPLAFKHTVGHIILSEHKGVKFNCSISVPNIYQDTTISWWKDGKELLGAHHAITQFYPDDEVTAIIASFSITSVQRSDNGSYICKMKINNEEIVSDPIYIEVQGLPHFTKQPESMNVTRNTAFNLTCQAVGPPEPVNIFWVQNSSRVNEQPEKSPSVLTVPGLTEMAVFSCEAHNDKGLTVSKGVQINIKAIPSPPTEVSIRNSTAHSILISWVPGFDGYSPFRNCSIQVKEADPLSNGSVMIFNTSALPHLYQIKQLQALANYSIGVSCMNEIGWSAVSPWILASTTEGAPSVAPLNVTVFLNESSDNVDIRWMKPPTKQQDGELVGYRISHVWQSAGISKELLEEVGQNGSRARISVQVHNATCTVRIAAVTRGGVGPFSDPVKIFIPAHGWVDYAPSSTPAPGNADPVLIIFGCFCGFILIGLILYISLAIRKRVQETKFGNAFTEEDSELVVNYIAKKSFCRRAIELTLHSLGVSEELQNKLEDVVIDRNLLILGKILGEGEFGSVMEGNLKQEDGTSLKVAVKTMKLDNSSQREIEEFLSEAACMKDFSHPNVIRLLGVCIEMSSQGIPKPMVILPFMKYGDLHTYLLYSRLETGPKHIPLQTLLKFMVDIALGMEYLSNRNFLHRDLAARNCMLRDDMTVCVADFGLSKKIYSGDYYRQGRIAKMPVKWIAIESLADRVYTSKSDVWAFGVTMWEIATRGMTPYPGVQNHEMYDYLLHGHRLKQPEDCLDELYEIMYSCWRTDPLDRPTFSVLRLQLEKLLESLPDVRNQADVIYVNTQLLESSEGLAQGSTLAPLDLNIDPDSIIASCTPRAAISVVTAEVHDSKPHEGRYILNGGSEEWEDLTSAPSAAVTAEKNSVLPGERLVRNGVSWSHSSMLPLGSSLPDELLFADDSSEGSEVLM

[8] = target: Hck (UniProt P08631); experiment: as above
[9] = target: FGFR3 (UniProt P22607); experiment: as above
Chain of FGFR3 (P22607 whole entry, looked up): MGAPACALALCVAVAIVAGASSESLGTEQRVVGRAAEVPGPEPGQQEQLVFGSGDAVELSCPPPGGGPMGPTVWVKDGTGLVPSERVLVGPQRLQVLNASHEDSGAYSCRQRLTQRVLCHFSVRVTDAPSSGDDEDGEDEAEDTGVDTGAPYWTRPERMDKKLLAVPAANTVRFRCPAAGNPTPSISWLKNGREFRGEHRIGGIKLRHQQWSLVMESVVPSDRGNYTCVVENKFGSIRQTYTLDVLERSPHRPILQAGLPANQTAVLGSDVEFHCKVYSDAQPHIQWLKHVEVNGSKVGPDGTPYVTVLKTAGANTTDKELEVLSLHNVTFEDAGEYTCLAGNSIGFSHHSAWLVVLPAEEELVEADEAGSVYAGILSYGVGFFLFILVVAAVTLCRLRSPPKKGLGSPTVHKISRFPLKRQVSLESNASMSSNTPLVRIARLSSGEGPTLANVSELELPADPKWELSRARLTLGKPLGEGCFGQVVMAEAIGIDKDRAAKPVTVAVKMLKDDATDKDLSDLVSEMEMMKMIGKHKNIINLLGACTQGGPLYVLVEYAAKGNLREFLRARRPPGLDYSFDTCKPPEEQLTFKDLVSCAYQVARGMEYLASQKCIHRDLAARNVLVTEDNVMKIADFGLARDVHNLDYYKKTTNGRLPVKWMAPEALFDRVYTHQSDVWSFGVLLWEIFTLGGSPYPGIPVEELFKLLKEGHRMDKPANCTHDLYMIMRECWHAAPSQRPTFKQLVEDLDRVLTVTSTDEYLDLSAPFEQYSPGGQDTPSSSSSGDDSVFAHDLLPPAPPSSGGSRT

[10] = target: FGFR1 (UniProt P11362); experiment: as above
[11] = target: Jak2 (UniProt O60674); experiment: as above
Chain of Jak2 (O60674 whole entry, looked up): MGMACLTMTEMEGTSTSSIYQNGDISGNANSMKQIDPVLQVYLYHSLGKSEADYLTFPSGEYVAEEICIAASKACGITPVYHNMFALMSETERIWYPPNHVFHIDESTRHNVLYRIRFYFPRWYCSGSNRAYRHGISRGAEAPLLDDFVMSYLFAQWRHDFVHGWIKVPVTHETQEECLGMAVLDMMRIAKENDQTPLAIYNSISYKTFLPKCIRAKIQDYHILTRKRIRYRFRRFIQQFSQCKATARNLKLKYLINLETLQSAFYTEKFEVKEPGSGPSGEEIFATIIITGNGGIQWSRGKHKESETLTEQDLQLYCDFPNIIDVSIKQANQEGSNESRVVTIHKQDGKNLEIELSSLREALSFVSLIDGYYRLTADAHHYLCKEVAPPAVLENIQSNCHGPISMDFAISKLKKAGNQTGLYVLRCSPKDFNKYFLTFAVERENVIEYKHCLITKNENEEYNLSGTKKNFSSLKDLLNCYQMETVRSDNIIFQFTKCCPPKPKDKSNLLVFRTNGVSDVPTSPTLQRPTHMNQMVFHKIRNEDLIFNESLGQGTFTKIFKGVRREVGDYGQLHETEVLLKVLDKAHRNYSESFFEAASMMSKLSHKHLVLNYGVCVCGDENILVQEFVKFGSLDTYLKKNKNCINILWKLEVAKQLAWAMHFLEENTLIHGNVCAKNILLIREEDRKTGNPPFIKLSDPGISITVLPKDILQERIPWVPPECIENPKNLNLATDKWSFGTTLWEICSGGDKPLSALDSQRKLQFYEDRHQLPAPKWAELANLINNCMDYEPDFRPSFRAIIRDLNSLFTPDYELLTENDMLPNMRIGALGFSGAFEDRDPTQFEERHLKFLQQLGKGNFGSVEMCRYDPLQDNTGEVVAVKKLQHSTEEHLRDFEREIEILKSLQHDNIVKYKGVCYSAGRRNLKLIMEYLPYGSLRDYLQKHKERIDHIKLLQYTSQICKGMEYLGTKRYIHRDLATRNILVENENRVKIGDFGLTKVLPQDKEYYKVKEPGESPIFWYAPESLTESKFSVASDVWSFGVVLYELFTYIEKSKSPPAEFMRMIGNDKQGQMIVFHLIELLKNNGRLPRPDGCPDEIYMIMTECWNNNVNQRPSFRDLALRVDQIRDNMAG

[12] = target: EPHB1 (UniProt P54762); experiment: as above
[13] = target: Fyn (UniProt P06241); experiment: as above
[14] = test system: c-Abl (mouse); experiment: as above
[15] = test system: AncSZ; experiment: as above
[16] = test system: Fer (mouse); experiment: as above
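For SH2 binding enrichment of the phosphorylated peptide, bacterial display in this document: peptide library displayed on the E. coli surface as eCPX fusions, selected cells deep-sequenced, score is each peptide's frequency after selection divided by its frequency in the input.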
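For phosphorylation enrichment, bacterial display in this document: 11-residue human phosphosite peptides and single-mutation variants displayed on the E. coli surface, counted by deep sequencing, each peptide's frequency after selection divided by its frequency in the unselected input library; frequency after pTyr selection over input frequency; kinase dosed for 20-30% of maximal phosphorylation in three min.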

Chain of Grb2 SH2 (P62993 whole entry, looked up): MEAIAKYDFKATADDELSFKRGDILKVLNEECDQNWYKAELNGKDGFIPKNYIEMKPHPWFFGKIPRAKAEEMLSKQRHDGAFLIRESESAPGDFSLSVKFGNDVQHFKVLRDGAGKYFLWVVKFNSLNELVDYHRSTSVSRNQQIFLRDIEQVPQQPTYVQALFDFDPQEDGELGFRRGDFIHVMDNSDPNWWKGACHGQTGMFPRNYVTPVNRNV

Sequence | SH2 binding enrichment [1] | SH2 binding enrichment [2] | SH2 binding enrichment [3] | phosphorylation enrichment [4] | phosphorylation enrichment [5] | phosphorylation enrichment [6] | phosphorylation enrichment [7] | phosphorylation enrichment [8] | phosphorylation enrichment [9] | phosphorylation enrichment [10] | phosphorylation enrichment [11] | phosphorylation enrichment [12] | phosphorylation enrichment [13] | phosphorylation enrichment [14] | phosphorylation enrichment [15] | phosphorylation enrichment [16]
AAALAYGLDKS [HSPA9_Y230] | 0.69 | 0.423 | 0.637 | 1.12 | 0.4 | 0.528 | 0.398 | 0.419 | 0.477 | 0.455 | 1.2 | 0.442 | 0.388 | 0.499 | 0.598 | 0.467
AAGGRYDGLLG [HARS2_Y364_V368L] | 0.785 | 0.545 | 0.633 | 0.85 | 0.415 | 0.468 | 0.451 | 0.459 | 0.531 | 0.457 | 0.645 | 0.471 | 0.548 | 1.01 | 0.631 | 0.452
AAGGRYDGLVG [HARS1_Y363] | 0.806 | 0.505 | 0.514 | 0.615 | 0.351 | 0.348 | 0.378 | 0.351 | 0.48 | 0.291 | 0.489 | 0.357 | 0.346 | 0.538 | 0.677 | 0.306
AAQNCYKVTNA [TPI1_Y105_G110A] | 1.15 | 0.608 | 0.639 | 0.639 | 0.455 | 0.44 | 0.62 | 0.36 | 0.46 | 0.367 | 0.552 | 0.355 | 0.454 | 0.466 | 0.522 | 0.354
AAVNGYAFGGG [ECHS1_Y137] | 0.75 | 0.455 | 0.647 | 0.553 | 0.389 | 0.379 | 0.324 | 0.344 | 0.406 | 0.435 | 0.521 | 0.347 | 0.423 | 0.548 | 0.495 | 0.473
ADKAAYLQNLN [MYH1_Y389] | 0.659 | 0.39 | 0.73 | 0.747 | 0.52 | 0.601 | 0.522 | 0.61 | 0.637 | 0.458 | 0.617 | 0.44 | 0.645 | 0.488 | 0.718 | 0.53
AEFGLYAAMVR [VSX2_Y222_G223A_YF] | 0.898 | 0.494 | 0.581 | 1.24 | 2.14 | 2.17 | 2.69 | 4.34 | 0.888 | 0.614 | 1.54 | 2.79 | 2.44 | 1.09 | 1.29 | 1.4
AELVQYYMEHH [PTPN11_Y80] | 0.688 | 0.683 | 1.13 | 1.26 | 1.01 | 0.845 | 0.68 | 0.974 | 0.954 | 0.827 | 1.19 | 1.06 | 0.654 | 0.826 | 1.2 | 0.494
AEMTGYVMTRW [MAPK13_Y182_V184M] | 0.67 | 0.467 | 0.594 | 1.23 | 0.578 | 0.397 | 0.364 | 0.561 | 0.885 | 0.653 | 1.11 | 0.656 | 0.493 | 0.709 | 1.29 | 0.537
AFGGGYGGVLT [KRT19_Y65_YF] | 0.784 | 0.455 | 0.719 | 0.647 | 0.407 | 0.38 | 0.286 | 0.454 | 0.446 | 0.338 | 0.625 | 0.478 | 0.378 | 0.685 | 0.699 | 0.312
AGADGYGFLAP [FOXL2_Y186_YF] | 0.832 | 0.456 | 0.661 | 0.737 | 0.508 | 0.797 | 0.618 | 0.71 | 0.694 | 0.652 | 0.857 | 0.391 | 0.517 | 0.698 | 0.846 | 0.611
AGGTRYRYVSQ [UCN3_Y95_R91G] | 0.777 | 0.438 | 0.438 | 0.616 | 0.525 | 0.507 | 0.519 | 0.435 | 0.381 | 0.397 | 0.417 | 0.574 | 0.491 | 0.474 | 0.529 | 0.377
AGHEEYSAMRD [KRAS_Y64_Q61H] | 0.777 | 0.512 | 0.713 | 0.981 | 0.578 | 0.558 | 0.532 | 0.542 | 0.588 | 0.51 | 0.854 | 0.462 | 0.588 | 0.616 | 0.797 | 0.43
AGNPAYRSFSN [IL4R_Y497] | 0.751 | 0.431 | 0.466 | 0.575 | 0.318 | 0.45 | 0.39 | 0.424 | 0.414 | 0.366 | 0.447 | 0.347 | 0.402 | 0.618 | 0.52 | 0.389
AGQEDDDRLRP [RAC1_Y64_Y64D] | 0.867 | 0.528 | 1.28 | 1.28 | 0.669 | 0.46 | 0.439 | 0.591 | 0.637 | 0.607 | 1.12 | 0.497 | 0.608 | 0.703 | 1.15 | 0.572
